Measurements published in PMC2946590, “Replication Past the γ-Radiation-Induced Guanine-Thymine Cross-Link G[8,5-Me]T by Human and Yeast DNA Polymerase η” (Journal of Nucleic Acids, 2010).

Key:
purified protein [1] = substrate: Nc1ncnc2c1ncn2[C@H]1C[C@H](O)[C@@H](COP(=O)(O)OP(=O)(O)OP(=O)(O)O)O1; experiment: purified protein; type: biochemical, Homo sapiens; details: undamaged 26-mer template, misincorporation opposite G, 6.4 nM enzyme, 50 nM template-primer, 25 mM Tris-HCl pH 7.5, 5 mM MgCl2, 5 mM DTT, 37 °C
purified protein [2] = substrate: Nc1ncnc2c1ncn2[C@H]1C[C@H](O)[C@@H](COP(=O)(O)OP(=O)(O)OP(=O)(O)O)O1; experiment: purified protein; type: biochemical, Saccharomyces cerevisiae; details: undamaged 26-mer template, misincorporation opposite G, 6.4 nM enzyme, 50 nM template-primer, 25 mM Tris-HCl pH 7.5, 5 mM MgCl2, 5 mM DTT, 37 °C

Protein	Km (purified protein [1]) [µM]	kcat (purified protein [1]) [min⁻¹]	kcat/Km (purified protein [1]) [M⁻¹ s⁻¹]	Km (purified protein [2]) [µM]	kcat (purified protein [2]) [min⁻¹]	kcat/Km (purified protein [2]) [M⁻¹ s⁻¹]
human DNA polymerase η (hPol η) (Homo sapiens) (protein, recombinant, purchased from Enzymax LLC (Lexington, KY)) MATGQDRVVALVDMDCFFVQVEQRQNPHLRNKPCAVVQYKSWKGGGIIAVSYEARAFGVTRSMWADDAKKLCPDLLLAQVRESRGKANLTKYREASVEVMEIMSRFAVIERASIDEAYVDLTSAVQERLQKLQGQPISADLLPSTYIEGLPQGPTTAEETVQKEGMRKQGLFQWLDSLQIDNLTSPDLQLTVGAVIVEEMRAAIERETGFQCSAGISHNKVLAKLACGLNKPNRQTLVSHGSVPQLFSQMPIRKIRSLGGKLGASVIEILGIEYMGELTQFTESQLQSHFGEKNGSWLYAMCRGIEHDPVKPRQLPKTIGCSKNFPGKTALATREQVQWWLLQLAQELEERLTKDRNDNDRVATQLVVSIRVQGDKRLSSLRRCCALTRYDAHKMSHDAFTVIKNCNTSGIQTEWSPPLTMLFLCATKFSASAPSSSTDITSFLSSDPSSLPKVPVTSSEAKTQGSGPAVTATKKATTSLESFFQKAAERQKVKEASLSSLTAPTQAPMSNSPSKPSLPFQTSQSTGTEPFFKQKSLLLKQKQLNNSSVSSPQQNPWSNCKALPNSLPTEYPGCVPVCEGVSKLEESSKATPAEMDLAHNSQSMHASSASKSVLEVTQKATPNPSLLAAEDQVPCEKCGSLVPVWDMPEHMDYHFALELQKSFLQPHSSNPQVVSAVSHQGKRNPKSPLACTNKRPRPEGMQTLESFFKPLTH	6.5 ± 0.03	6.25 ± 0.01	16000			
yeast DNA polymerase η (yPol η) (Saccharomyces cerevisiae S288C) (protein, recombinant, purchased from Enzymax LLC (Lexington, KY)) MSKFTWKELIQLGSPSKAYESSLACIAHIDMNAFFAQVEQMRCGLSKEDPVVCVQWNSIIAVSYAARKYGISRMDTIQEALKKCSNLIPIHTAVFKKGEDFWQYHDGCGSWVQDPAKQISVEDHKVSLEPYRRESRKALKIFKSACDLVERASIDEVFLDLGRICFNMLMFDNEYELTGDLKLKDALSNIREAFIGGNYDINSHLPLIPEKIKSLKFEGDVFNPEGRDLITDWDDVILALGSQVCKGIRDSIKDILGYTTSCGLSSTKNVCKLASNYKKPDAQTIVKNDCLLDFLDCGKFEITSFWTLGGVLGKELIDVLDLPHENSIKHIRETWPDNAGQLKEFLDAKVKQSDYDRSTSNIDPLKTADLAEKLFKLSRGRYGLPLSSRPVVKSMMSNKNLRGKSCNSIVDCISWLEVFCAELTSRIQDLEQEYNKIVIPRTVSISLKTKSYEVYRKSGPVAYKGINFQSHELLKVGIKFVTDLDIKGKNKSYYPLTKLSMTITNFDIIDLQKTVVDMFGNQVHTFKSSAGKEDEEKTTSSKADEKTPKLECCKYQVTFTDQKALQEHADYHLALKLSEGLNGAEESSKNLSFGEKRLLFSRKRPNSQHTATPQKKQVTSSKNILSFFTRKK				9.5 ± 0.002	5.3 ± 0.03	9330
